What was measured:
Assay in all cases: SPR
[1] = biological target: 16A Fab W34F (mouse | human)
[2] = biological target: 14A Fab G32R (mouse | human)
[3] = biological target: 16A Fab R32G (mouse | human)

KD(peptide)/KD(GalNAc-T) [1] [fold]	Kd [2] [nM]	KD(peptide)/KD(GalNAc-S) [3] [fold]	Substance
2.8	–	–	MUC1 glycopeptide RPAPGST(Tn)APPAHG
–	128	1.9	MUC1 glycopeptide RPAPGS(Tn)TAPPAHG

From publication doi:10.1101/2022.07.24.501275
